Laboratory results: IntAct's records for PubMed 29039417

B1: BBSome complex member BBS1 (Homo sapiens), Q8NFJ9 (parent)
chain: MAAASSSDSDACGAESNEANSKWLDAHYDPMANIHTFSACLALADLHGDGEYKLVVGDLGPGGQQPRLKVLKGPLVMTESPLPALPAAAATFLMEQHEPRTPALALASGPCVYVYKNLRPYFKFSLPQLPPNPLEQDLWNQAKEDRIDPLTLKEMLESIRETAEEPLSIQSLRFLQLELSEMEAFVNQHKSNSIKRQTVITTMTTLKKNLADEDAVSCLVLGTENKELLVLDPEAFTILAKMSLPSVPVFLEVSGQFDVEFRLAAACRNGNIYILRRDSKHPKYCIELSAQPVGLIRVHKVLVVGSTQDSLHGFTHKGKKLWTVQMPAAILTMNLLEQHSRGLQAVMAGLANGEVRIYRDKALLNVIHTPDAVTSLCFGRYGREDNTLIMTTRGGGLIIKILKRTAVFVEGGSEVGPPPAQAMKLNVPRKTRLYVDQTLREREAGTAMHRAFQTDLYLLRLRAARAYLQALESSLSPLSTTAREPLKLHAVVQGLGPTFKLTLHLQNTSTTRPVLGLLVCFLYNEALYSLPRAFFKVPLLVPGLNYPLETFVESLSNKGISDIIKVLVLREGQSAPLLSAHVNMPGSEGLAAA
partner: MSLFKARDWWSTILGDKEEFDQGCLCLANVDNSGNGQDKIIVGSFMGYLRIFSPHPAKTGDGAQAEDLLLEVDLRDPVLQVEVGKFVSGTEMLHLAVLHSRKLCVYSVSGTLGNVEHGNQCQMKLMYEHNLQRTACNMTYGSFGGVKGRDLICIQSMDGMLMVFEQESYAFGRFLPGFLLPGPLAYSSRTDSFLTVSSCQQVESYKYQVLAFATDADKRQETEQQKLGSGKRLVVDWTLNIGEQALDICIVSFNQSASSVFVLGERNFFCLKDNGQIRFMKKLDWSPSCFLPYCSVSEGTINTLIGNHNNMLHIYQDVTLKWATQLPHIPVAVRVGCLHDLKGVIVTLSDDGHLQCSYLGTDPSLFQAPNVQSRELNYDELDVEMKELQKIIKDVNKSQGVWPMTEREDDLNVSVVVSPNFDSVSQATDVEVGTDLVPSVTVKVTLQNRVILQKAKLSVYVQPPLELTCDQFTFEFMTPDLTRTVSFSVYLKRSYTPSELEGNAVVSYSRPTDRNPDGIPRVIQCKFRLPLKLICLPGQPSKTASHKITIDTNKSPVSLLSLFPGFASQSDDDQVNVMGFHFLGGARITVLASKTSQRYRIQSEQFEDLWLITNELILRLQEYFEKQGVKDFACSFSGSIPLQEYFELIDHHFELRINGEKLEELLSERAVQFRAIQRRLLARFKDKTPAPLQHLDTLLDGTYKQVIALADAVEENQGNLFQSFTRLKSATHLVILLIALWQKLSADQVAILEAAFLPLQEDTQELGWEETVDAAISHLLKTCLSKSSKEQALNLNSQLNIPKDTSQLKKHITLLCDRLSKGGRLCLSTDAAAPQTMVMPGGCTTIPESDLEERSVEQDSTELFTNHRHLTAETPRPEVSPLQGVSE
B2: BBSome complex member BBS2 (Homo sapiens), Q9BXC9 (parent)
chain: MLLPVFTLKLRHKISPRMVAIGRYDGTHPCLAAATQTGKVFIHNPHTRNQHVSASRVFQSPLESDVSLLSINQAVSCLTAGVLNPELGYDALLVGTQTNLLAYDVYNNSDLFYREVADGANAIVLGTLGDISSPLAIIGGNCALQGFNHEGSDLFWTVTGDNVNSLALCDFDGDGKKELLVGSEDFDIRVFKEDEIVAEMTETEIVTSLCPMYGSRFGYALSNGTVGVYDKTSRYWRIKSKNHAMSIHAFDLNSDGVNELITGWSNGKVDARSDRTGEVIFKDNFSSAIAGVVEGDYRMDGHIQLICCSVDGEIRGYLPGTAEMRGNLMDTSAEQDLIRELSQKKQNLLLELRNYEENAKAELASPLNEADGHRGIIPANTRLHTTLSVSLGNETQTAHTELRISTSNDTIIRAVLIFAEGIFTGESHVVHPSIHNLSSSICIPIVPPKDVPVDLHLKAFVGYRSSTQFHVFESTRQLPRFSMYALTSLDPASEPISYVNFTIAERAQRVVVWLGQNFLLPEDTHIQNAPFQVCFTSLRNGGHLHIKIKLSGEITINTDDIDLAGDIIQSMASFFAIEDLQVEADFPVYFEELRKVLVKVDEYHSVHQKLSADMADHSNLIRSLLVGAEDARLMRDMKTMKSRYMELYDLNRDLLNGYKIRCNNHTELLGNLKAVNQAIQRAGRLRVGKPKNQVITACRDAIRSNNINTLFKIMRVGTASS
partner: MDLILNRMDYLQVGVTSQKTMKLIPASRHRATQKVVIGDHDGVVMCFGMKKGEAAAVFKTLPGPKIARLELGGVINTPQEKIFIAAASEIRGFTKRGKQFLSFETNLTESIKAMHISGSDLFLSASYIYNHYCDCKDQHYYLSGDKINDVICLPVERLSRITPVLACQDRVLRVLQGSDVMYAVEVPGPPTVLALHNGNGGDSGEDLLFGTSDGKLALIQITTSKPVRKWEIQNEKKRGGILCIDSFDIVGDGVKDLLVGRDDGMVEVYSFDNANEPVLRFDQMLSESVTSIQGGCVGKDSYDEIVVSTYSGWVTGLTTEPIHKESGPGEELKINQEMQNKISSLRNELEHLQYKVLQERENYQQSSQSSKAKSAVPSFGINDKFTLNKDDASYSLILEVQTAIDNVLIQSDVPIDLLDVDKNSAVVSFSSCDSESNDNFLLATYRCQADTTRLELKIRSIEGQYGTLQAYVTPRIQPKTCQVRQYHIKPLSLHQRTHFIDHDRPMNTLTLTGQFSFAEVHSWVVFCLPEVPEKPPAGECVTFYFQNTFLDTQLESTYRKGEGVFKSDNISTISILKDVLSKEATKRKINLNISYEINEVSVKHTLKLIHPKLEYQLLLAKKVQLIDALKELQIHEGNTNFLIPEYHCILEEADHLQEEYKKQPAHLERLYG

Variants of: B1
Conditions: with pthb1_human BBS9, Q3SYG4

effect of a mutation on the interaction | Variant
disrupting interaction strength | L503H
with no effect | R512H

Variants of: B1
Conditions: with pthb1_human BBS9, Q3SYG4
Remark: another data set of the same source

Variant | effect of a mutation on the interaction
H581E | with no effect
H581A | with no effect
V582E | with no effect
V582K | with no effect
G586E | with no effect
G586K | with no effect
G586A | with no effect
P576A | with no effect
P576K | disrupting interaction strength
N583K | with no effect
N583E | with no effect
S587A | with no effect
S587E | with no effect
S579E | with no effect
S579A | with no effect
S579K | with no effect
P585A | with no effect
P585K | with no effect

Variant | effect of a mutation on the interaction
P585E | with no effect
G589K | with no effect
G589A | with no effect
A591E | with no effect
S574K | with no effect
S574E | with no effect
Q573K | with no effect
Q573E | with no effect
L577A | with no effect
L578K | with no effect
L578A | with no effect
L590K | with no effect
E588K | with no effect
M584E | with no effect
M584A | with no effect
M584K | with no effect
A580K | with no effect

Now from value to variant:

effect of a mutation on the interaction | Variant
with no effect | H581K
with no effect | V582A
disrupting interaction strength | G586R
with no effect | P576E
with no effect | N583A
with no effect | S587K
with no effect | G589E
with no effect | A591K
with no effect | S574A
with no effect | L577K
with no effect | L577E
with no effect | L578E
with no effect | A592K
with no effect | A592E
with no effect | A593K
with no effect | A593E
with no effect | L590E
with no effect | L590A
with no effect | E588A
with no effect | A575K
with no effect | A575E
with no effect | A580E

Variants of: B2
Conditions: with BBS7, Q8IWZ6-2

Variant | effect of a mutation on the interaction
E334A | with no effect
L352E | with no effect
L352A | with no effect
A364E | with no effect
E356K | with no effect
E356A | with no effect
R339K | with no effect
D330E | with no effect
D330A | with no effect
D371A | with no effect
T331A | with no effect
T331K | with no effect
T331E | with no effect
L363K | with no effect
L363A | with no effect
E369A | with no effect
S342A | with no effect
S342K | with no effect
K360E | with no effect
D336K | with no effect
K344A | with no effect
N327K | with no effect
E357A | with no effect

Variant | effect of a mutation on the interaction
E357K | with no effect
A359E | with no effect
A359K | with no effect
L367E | with no effect
L367A | with no effect
L367K | with no effect
Q335E | with no effect
Q335K | with no effect
P366A | with no effect
I338K | with no effect
I338A | with no effect
N368K | with no effect
N368A | with no effect
A361K | with no effect
N347E | with no effect
N347K | with no effect
E340K | with no effect
E340A | with no effect
K345E | with no effect
E362K | with no effect
L349E | with no effect
L349K | with no effect
S365K | with no effect

Variant | effect of a mutation on the interaction
S365A | with no effect
S365E | with no effect
N354K | with no effect
N354E | with no effect
N354A | with no effect
Y355E | with no effect
Y355A | with no effect
Y355K | with no effect
L337K | with no effect
L337E | with no effect
L328E | with no effect
L328K | with no effect
R353K | with no effect
E351A | with no effect
E351K | with no effect
S332K | with no effect
S332E | with no effect
L350K | with no effect
L350A | with no effect
L350E | with no effect
L341A | with no effect
L341K | with no effect
M329K | with no effect

Variant | effect of a mutation on the interaction
M329A | with no effect
M329E | with no effect
A370E | with no effect
A370K | with no effect
L348E | with no effect
L348K | with no effect
L348A | with no effect
R325E | with no effect
R325A | with no effect
R325K | with no effect
Q343A | with no effect
Q343E | with no effect
Q343K | with no effect
N358K | with no effect
N358E | with no effect
N358A | with no effect
G326K | with no effect
G326A | with no effect
G326E | with no effect
Q346E | with no effect
Q346A | with no effect

Further lines, results first:

effect of a mutation on the interaction | Variant
with no effect | E334K
with no effect | L352K
with no effect | A364K
with no effect | R339E
with no effect | R339A
with no effect | D330K
with no effect | D371K
with no effect | D371E
with no effect | L363E
with no effect | E369K
with no effect | S342E
with no effect | K360A
disrupting interaction strength | K360P
with no effect | D336A
with no effect | D336E
with no effect | K344E
with no effect | N327A
with no effect | N327E
with no effect | Q335A

effect of a mutation on the interaction | Variant
with no effect | P366K
with no effect | P366E
with no effect | I338E
with no effect | N368E
with no effect | A361E
with no effect | A333E
with no effect | A333K
with no effect | N347A
with no effect | K345A
with no effect | E362A
with no effect | L349A
with no effect | L337A
with no effect | L328A
with no effect | R353E
with no effect | R353A
with no effect | S332A
with no effect | L341E
with no effect | Q346K
